Measurements taken from patent US20130183688A1 (BRIGHAM AND WOMEN S HOSPITAL, published 2013).
Blank lines part the entries; values can stand above or below the binder they belong to.

Experiments:
[1] = target: T1, galectin-9 R64A (mutation in N-terminal CRD domain), expressed in CHO cells (mouse, UniProt O08573 1-353); assay: intracellular staining of transfected CHO cells by sTIM-3-Ig, flow cytometry
T1 construct: Intracellular staining; also called mutant galectin-9 N-terminal CRD
Method: (§1) FIGS. 12A-12C show galectin-9 recognizes the β-galactoside bond in oligosaccharide chains of TIM-3. FIG. 12A Galectin-9 expression plasmid was transiently transfected into CHO cells and fixed for intracellular staining by sTIM-3-Ig. Incubation buffers with different concentrations from 0 to 100 mM of α-lactose were used in the experiments. Bars in the histograph represent percentage of double positive cell population for EGFP and sTIM-3-Ig staining in presence of different concentration of a-lactose. FIG. 12B Two μg of r-galectin-9 was mixed with 4 μg sTIM-3-Ig in presence of different concentration of a-lactose from 0 to 100 mM in a pull-down experiment. Elutes from protein G beads were applied to SDS-PAGE and stained by Coomassie blue. A band at 50 kD represents sTIM-3-Ig, and the one at 38 kD stands for r-galectin-9. FIG. 12C CRD domains in galectin-9 are required for interaction with TIM-3. Constructs with mutation of R64A in N-terminal CRD domain (second column graphs), R238A in C-terminal CRD domain (third column graphs), or both (fourth column graphs) were generated and subcloned into expression vector pIRES2-EGFP. CHO cells were transiently transfected by wt (first column graphs) and mutant galection-9 expression plasmids (second through fourth column graphs) for intracellular staining by sTIM-3-Ig. EGFP and anti-human IgG-Fc-PE double positive standard for interaction between galectin-9 and sTIM-3-Ig.

[2] = target: T2, galectin-9 R238A (mutation in C-terminal CRD domain), expressed in CHO cells (mouse, UniProt O08573 1-353); assay: as above
T2 construct: Intracellular staining; also called mutant galectin-9 C-terminal CRD
Method: as §1

[3] = target: T3, galectin-9 R64A and R238A (double mutation in both CRD domains), expressed in CHO cells (mouse, UniProt O08573 1-353); assay: as above
T3 construct: Intracellular staining; also called double mutant galectin-9
Method: as §1

[4] = target: T4, murine galectin-9 long isoform (galectin-9-L), expressed in transiently transfected CHO cells (mouse, UniProt O08573 1-353); assay: intracellular staining of transfected CHO cells, anti-human IgG-Fc-PE, flow cytometry
T4 construct: Expressed from pIRES2-EGFP in CHO cells; intracellular staining of fixed cells
From the text: FIG. 11A Both regular and long isoforms for galectin-9 (galectin-9 and galectin-9-L respectively) are able to bind to TIM-3. Protein sequences between two galectin-9 isoforms are identical except a 31 amino acid peptide insert in the hinge region of galectin-9-L. Murine cDNAs for isoforms of galectin-9 from TK-1 cells were subcloned into a eukaryotic bicistronic expression vector pIRES2-EGFP. The plasmids were transiently transfected into CHO cells respectively. Cells were fixed for intracellular staining with flTIM-3-Ig (top row graphs), sTIM-3-Ig (center row graphs), and hIgG (bottom row graphs) and detected by anti-human IgG-Fc-PE 48 hours after transfection. EGFP positive signals in FACS analyses indicated transfected cells. The anti-human IgG-Fc-PE was used to detect the binding from Ig fusions or hIgG. FIG. 11B Murine cDNAs for galectin-9 (first column graphs), -4 (second column graphs), -3 (third column graphs), and -1 (fourth column graphs) were subcloned into pIRES2-EGFP. […]
To confirm the interaction between galectin-9 and TIM-3, both galectin-9 isoform cDNAs were subcloned into an expression vector that bicistronically expresses EGFP protein. […] In transient transfection, expression of galectin-9 was not detected on the cell surface. […]

[5] = target: T5, recombinant galectin-9 (r-galectin-9) (mouse, UniProt O08573 1-353); assay: pull-down with protein G beads, SDS-PAGE, Coomassie blue
T5 construct: Any vector-derived tag is not described; also called purified recombinant galectin-9
From the text: FIG. 11A Both regular and long isoforms for galectin-9 (galectin-9 and galectin-9-L respectively) are able to bind to TIM-3. Protein sequences between two galectin-9 isoforms are identical except a 31 amino acid peptide insert in the hinge region of galectin-9-L. Murine cDNAs for isoforms of galectin-9 from TK-1 cells were subcloned into a eukaryotic bicistronic expression vector pIRES2-EGFP. The plasmids were transiently transfected into CHO cells respectively. Cells were fixed for intracellular staining with flTIM-3-Ig (top row graphs), sTIM-3-Ig (center row graphs), and hIgG (bottom row graphs) and detected by anti-human IgG-Fc-PE 48 hours after transfection. EGFP positive signals in FACS analyses indicated transfected cells. The anti-human IgG-Fc-PE was used to detect the binding from Ig fusions or hIgG. FIG. 11B Murine cDNAs for galectin-9 (first column graphs), -4 (second column graphs), -3 (third column graphs), and -1 (fourth column graphs) were subcloned into pIRES2-EGFP. The plasmids and the empty vector (fifth column graphs) that only produces EGFP were transiently transfected into CHO for intracellular staining by s-TIM-3-Ig respectively. The anti-human IgG-Fc-PE was used to detect sTIM-3-Ig binding. FIG. 11C Galectin-9 cDNA was subcloned into prokaryotic expression vector pTrcHis 2B. […]

[6] = target: T6, murine galectin-9 (regular isoform), expressed in transiently transfected CHO cells (mouse, UniProt O08573 1-353); assay: intracellular staining of galectin-9 transfected CHO cells, flow cytometry
T6 construct: Expressed from pIRES2-EGFP in CHO cells; not found on the cell surface, detected by intracellular staining of fixed cells; also called regular galectin-9; wt galectin-9

[7] = target: T7, galectin-9 of TK-1 cells (biotinylated membrane associated 40 to 60 kD band, 35 kD after PNGase F) (UniProt O08573-2 1-322, limits assumed, surface biotinylated with NHS-LC-Biotin); assay: pull-down from lysate of surface biotinylated TK-1 cells, Protein G-agarose, Western blot
T7 construct: Endogenous protein pulled down from cell lysate; also called 35 kD protein
Method: FIG. 10A TK-1 cells express the highest level of TIM-3 ligand(s). Three T cell lines, TK-1, S49.1G.3PHA 100/0, and BW1547.G.1.4, were stained by biotinylated sTIM-3-Ig (0.4 mg/ml) at 1:20 (top row graphs) and 1:50 dilutions (center row graphs), and detected by anti-human IgG-Fc-PE for the TIM-3 ligand expression. All T cell lines are stained positively by TIM-3 fusions FACS analysis, among which up to 90% of TK-1 were positively stained by both flTIM-3-Ig and sTIM-3-Ig (bottom row graphs). […] Extracellular membrane associated proteins on live TK-1 cells were biotinylated by NHS-LC-Biotin in PBS pH7.9 buffer at room temperature. Reaction was stopped by DMEM medium after 1 hour incubation. Cell lysate from the biotinylated TK-1 cells was used in pull-down experiment by incubating with 5 μg flTIM-3-Ig, sTIM-3-Ig, TIM-2-Ig, and hIgG respectively plus Protein G-agarose beads at 4° C. Protein samples eluted from beads were treated with or without PNGase F to remove N-linked sugar chains, and applied to SDS-PAGE and Western blot. Only signals from biotinylated membrane associated proteins bound to avidin conjugated peroxidase and were detected by chemiluminescent signal. […]

T4 sequence (O08573 whole entry, canonical isoform): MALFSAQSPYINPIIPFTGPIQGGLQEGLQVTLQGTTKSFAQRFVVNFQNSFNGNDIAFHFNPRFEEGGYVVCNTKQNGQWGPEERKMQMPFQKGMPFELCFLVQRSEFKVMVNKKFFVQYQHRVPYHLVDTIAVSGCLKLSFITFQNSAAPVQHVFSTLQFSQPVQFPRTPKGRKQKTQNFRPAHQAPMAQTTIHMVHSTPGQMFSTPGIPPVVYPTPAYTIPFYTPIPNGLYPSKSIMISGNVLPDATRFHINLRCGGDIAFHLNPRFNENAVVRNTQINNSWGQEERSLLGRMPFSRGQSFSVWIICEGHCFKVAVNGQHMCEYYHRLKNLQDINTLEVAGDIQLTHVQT
T2 sequence (O08573 other isoform, or with tags, fused parts or gaps R238A R238A): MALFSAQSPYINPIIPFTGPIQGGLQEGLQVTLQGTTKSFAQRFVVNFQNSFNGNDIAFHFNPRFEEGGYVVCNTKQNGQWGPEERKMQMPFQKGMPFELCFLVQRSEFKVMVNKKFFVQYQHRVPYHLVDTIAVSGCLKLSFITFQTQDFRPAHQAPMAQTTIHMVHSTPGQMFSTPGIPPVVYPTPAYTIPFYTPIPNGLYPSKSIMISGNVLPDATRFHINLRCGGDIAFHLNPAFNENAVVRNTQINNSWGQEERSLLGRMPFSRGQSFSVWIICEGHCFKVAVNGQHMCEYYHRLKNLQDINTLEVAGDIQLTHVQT
T5 sequence (O08573 other isoform, or with tags, fused parts or gaps limits assumed): as the sequence (O08573 other isoform, or with tags, fused parts or gaps R238A R238A) above, with A238R counted along it
T6 sequence (O08573 other isoform, or with tags, fused parts or gaps): as the sequence (O08573 other isoform, or with tags, fused parts or gaps R238A R238A) above, with A238R counted along it
T3 sequence (O08573 other isoform, or with tags, fused parts or gaps R64A R238A R64A R238A): as the sequence (O08573 other isoform, or with tags, fused parts or gaps R238A R238A) above, with R64A counted along it
T7 sequence (O08573 other isoform, or with tags, fused parts or gaps limits assumed): as the sequence (O08573 other isoform, or with tags, fused parts or gaps R238A R238A) above, with D150N, A238R counted along it
T1 sequence (O08573 other isoform, or with tags, fused parts or gaps R64A R64A): as the sequence (O08573 other isoform, or with tags, fused parts or gaps R238A R238A) above, with R64A, A238R counted along it

binding result [1]: binds | binding result [2]: binds | binding result [3]: no binding | binding result [4]: binds
B1: soluble Tim-3-Ig fusion protein (s-Tim-3-Ig) (Fc fusion)
chain: LEDGYKVEVGKNAYLPCSYTLPTSGTLVPMCWGKGFCPWSQCTNELLRTDERNVTYQKSSRYQLKGDLNKGDVSLIIKNVTLDDHGTYCCRIQFPGLMNDKKLELKLDIKA
modifications: biotinylated in some cell staining experiments
notes: not shown: human IgG1 Fc tail

binding result [5]: no binding | binding result [6]: no binding | binding result [7]: no binding (tested: 5 µg)
B2: TIM-2-Ig (Fc fusion, UniProt Q8R183 22-231, looked up)
chain: HTAVQGLAGHPVTLPCIYSTHLGGIVPMCWGLGECRHSYCIRSLIWTNGYTVTHQRNSLYQLKGNISEGNVSLTIENTVVGDGGPYCCVVEIPGAFHFVDYMLEVKPEISTSPPTRPTATGRPTTISTRSTHVPTSTRVSTSTSPTPAHTETYKPEATTFYPDQTTAEVTETLPDTPADWHNTVTSSDDPWDDNTEVIPPQKPQKNLNKG
notes: Control Ig fusion; also called TIM-2 Ig fusion; not shown: Ig part of the fusion not described

binding result [4]: binds
B3: full-length Tim-3-Ig fusion protein (ex-Tim-3-Ig) (Fc fusion)
chain: RSLEDGYKVEVGKNAYLPCSYTLPTSGTLVPMCWGKGFCPWSQCTNELLRTDERNVTYQKSSRYQLKGDLNKGDVSLIIKNVTLDDHGTYCCRIQFPGLMNDKKLELKLDIKAAKVTPAQTAHGDSTTASPRTLTTERNGSETQTLVTLHNNNGTKISTWADEIKDSGETIRTA
modifications: biotinylated in some cell staining experiments
notes: expressed in NS.1 cells; also called flTIM-3-Ig; flTim-3-Ig; not shown: human IgG1 Fc tail
